According to article PMC2756588:

T1: Bzz1-1, P38822
T1 sequence (P38822 478-572, looked up): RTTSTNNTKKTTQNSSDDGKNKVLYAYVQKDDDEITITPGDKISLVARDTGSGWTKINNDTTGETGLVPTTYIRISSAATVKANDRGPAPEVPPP

T2: Hof1, Q05080
T2 sequence (Q05080 590-669, looked up): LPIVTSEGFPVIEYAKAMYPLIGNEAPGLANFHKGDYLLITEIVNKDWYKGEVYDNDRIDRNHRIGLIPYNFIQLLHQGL

T3: Pex13, P80667
T3 sequence (P80667 295-386, looked up): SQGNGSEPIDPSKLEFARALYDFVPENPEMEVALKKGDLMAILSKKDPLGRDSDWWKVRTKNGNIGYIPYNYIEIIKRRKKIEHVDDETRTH

T4: Bzz1-2, P38822
T4 sequence (P38822 568-633, looked up): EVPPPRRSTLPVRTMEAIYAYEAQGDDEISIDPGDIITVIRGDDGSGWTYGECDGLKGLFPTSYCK

T5: Boi2, P39969
T5 sequence (P39969 32-116, looked up): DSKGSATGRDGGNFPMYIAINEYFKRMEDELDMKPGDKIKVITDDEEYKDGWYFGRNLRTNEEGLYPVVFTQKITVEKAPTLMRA

T6: Hse1, P38753
T6 sequence (P38753 208-285, looked up): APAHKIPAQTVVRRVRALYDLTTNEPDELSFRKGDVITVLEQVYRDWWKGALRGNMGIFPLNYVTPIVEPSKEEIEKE

T7: Pin3, Q06449
T7 sequence (Q06449 53-122, looked up): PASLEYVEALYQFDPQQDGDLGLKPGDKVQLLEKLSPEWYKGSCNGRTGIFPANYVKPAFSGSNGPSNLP

T8: Cyk3, Q07533
T8 sequence (Q07533 1-83, looked up): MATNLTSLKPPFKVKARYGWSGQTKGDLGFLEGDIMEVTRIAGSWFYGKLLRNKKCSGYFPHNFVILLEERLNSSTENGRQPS

T9: Fus1, P11710
T9 sequence (P11710 432-512, looked up): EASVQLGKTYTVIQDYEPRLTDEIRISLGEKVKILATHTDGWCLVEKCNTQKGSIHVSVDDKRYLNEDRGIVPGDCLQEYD

T10: Bbc1, P47068
T10 sequence (P47068 1-78, looked up): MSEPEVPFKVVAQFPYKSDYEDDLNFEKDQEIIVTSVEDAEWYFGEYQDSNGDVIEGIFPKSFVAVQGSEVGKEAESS

T11: Boi1, P38041
T11 sequence (P38041 1-86, looked up): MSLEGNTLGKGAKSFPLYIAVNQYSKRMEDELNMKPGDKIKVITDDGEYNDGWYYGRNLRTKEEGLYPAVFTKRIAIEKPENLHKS

T12: Lsb3, P43603
T12 sequence (P43603 385-451, looked up): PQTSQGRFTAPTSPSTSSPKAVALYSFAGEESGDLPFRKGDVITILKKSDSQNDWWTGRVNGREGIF

T13: Sla1-3, P32790
T13 sequence (P32790 344-424, looked up): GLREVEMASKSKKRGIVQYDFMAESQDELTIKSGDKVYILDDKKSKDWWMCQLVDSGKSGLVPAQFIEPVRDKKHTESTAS

T14: Myo5, Q04439
T14 sequence (Q04439 1072-1160, looked up): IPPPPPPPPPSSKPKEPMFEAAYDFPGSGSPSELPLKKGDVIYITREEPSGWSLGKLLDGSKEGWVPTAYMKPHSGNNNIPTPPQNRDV

T15: Lsb1, P53281
T15 sequence (P53281 45-122, looked up): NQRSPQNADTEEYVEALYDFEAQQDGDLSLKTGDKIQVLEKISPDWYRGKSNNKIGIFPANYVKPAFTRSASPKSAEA

T16: Cdc25, P04821
T16 sequence (P04821 50-136, looked up): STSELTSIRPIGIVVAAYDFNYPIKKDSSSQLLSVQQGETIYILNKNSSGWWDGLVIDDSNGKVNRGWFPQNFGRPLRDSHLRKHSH

T17: Bud14, P27637
T17 sequence (P27637 247-328, looked up): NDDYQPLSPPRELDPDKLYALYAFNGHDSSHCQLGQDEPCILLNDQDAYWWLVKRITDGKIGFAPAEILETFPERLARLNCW

T18: Sla1-2, P32790
T18 sequence (P32790 60-140, looked up): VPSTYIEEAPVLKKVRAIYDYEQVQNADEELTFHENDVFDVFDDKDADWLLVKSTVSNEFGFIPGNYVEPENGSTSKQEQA

T19: Nbp2, Q12163
T19 sequence (Q12163 103-180, looked up): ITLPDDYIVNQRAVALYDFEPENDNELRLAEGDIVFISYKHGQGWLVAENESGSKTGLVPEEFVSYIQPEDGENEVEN

T20: Abp1, P15891
T20 sequence (P15891 535-592, looked up): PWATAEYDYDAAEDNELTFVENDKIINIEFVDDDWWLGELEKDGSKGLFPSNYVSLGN

T21: Lsb4, P32793
T21 sequence (P32793 402-468, looked up): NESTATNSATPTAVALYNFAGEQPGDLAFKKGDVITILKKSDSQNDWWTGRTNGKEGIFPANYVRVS


Tests used:
Assay in all cases: SPOT array
Bzz1-1, P38822 = target: T1, Bzz1-1, P38822; conditions: median of control spots 4446
Hof1, Q05080 = target: T2, Hof1, Q05080; conditions: median of control spots 4086
Rvs167, P39743 = conditions: median of control spots 2707
Pex13, P80667 = target: T3, Pex13, P80667; conditions: median of control spots 1341
Bzz1-2, P38822 = target: T4, Bzz1-2, P38822; conditions: median of control spots 4538
Boi2, P39969 = target: T5, Boi2, P39969; conditions: median of control spots 1161
GST = conditions: median of control spots 978
Hse1, P38753 = target: T6, Hse1, P38753; conditions: median of control spots 1727
Pin3, Q06449 = target: T7, Pin3, Q06449; conditions: median of control spots 2171
Cyk3, Q07533 = target: T8, Cyk3, Q07533; conditions: median of control spots 1451
Fus1, P11710 = target: T9, Fus1, P11710; conditions: median of control spots 1200
Bem1-2, P29366 = conditions: median of control spots 4347
Bbc1, P47068 = target: T10, Bbc1, P47068; conditions: median of control spots 796
Bem1-1, P29366 = conditions: median of control spots 4282
Boi1, P38041 = target: T11, Boi1, P38041; conditions: median of control spots 1162
Myo3, P36006 = conditions: median of control spots 468
Lsb3, P43603 = target: T12, Lsb3, P43603; conditions: median of control spots 406
Sla1-3, P32790 = target: T13, Sla1-3, P32790; conditions: median of control spots 5475
Myo5, Q04439 = target: T14, Myo5, Q04439; conditions: median of control spots 471
Lsb1, P53281 = target: T15, Lsb1, P53281; conditions: median of control spots 388
Sho1, P40073 = conditions: median of control spots 1148
Cdc25, P04821 = target: T16, Cdc25, P04821; conditions: median of control spots 969
Bud14, P27637 = target: T17, Bud14, P27637; conditions: median of control spots 956
Sla1-2, P32790 = target: T18, Sla1-2, P32790; conditions: median of control spots 712
Nbp2, Q12163 = target: T19, Nbp2, Q12163; conditions: median of control spots 357
Abp1, P15891 = target: T20, Abp1, P15891; conditions: median of control spots 935
Lsb4, P32793 = target: T21, Lsb4, P32793; conditions: median of control spots 397

Bem1-2, P29366, sequence (P29366 139-227): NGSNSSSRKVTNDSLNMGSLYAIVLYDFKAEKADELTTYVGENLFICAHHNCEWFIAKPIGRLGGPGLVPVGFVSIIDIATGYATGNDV
Bem1-1, P29366, sequence (P29366 55-141): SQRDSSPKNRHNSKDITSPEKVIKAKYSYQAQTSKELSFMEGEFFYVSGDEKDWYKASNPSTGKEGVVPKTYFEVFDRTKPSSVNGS
Sho1, P40073, sequence (P40073 287-367): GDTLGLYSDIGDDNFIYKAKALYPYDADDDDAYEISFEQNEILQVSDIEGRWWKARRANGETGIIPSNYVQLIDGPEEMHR
Rvs167, P39743, sequence (P39743 419-482): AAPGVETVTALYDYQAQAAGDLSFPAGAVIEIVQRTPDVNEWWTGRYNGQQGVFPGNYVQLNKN

Binder | SPOT intensity (Bzz1-1, P38822) | SPOT intensity (Hof1, Q05080) | SPOT intensity (Rvs167, P39743) | SPOT intensity (Pex13, P80667) | SPOT intensity (Bzz1-2, P38822) | SPOT intensity (Boi2, P39969) | SPOT intensity (GST) | SPOT intensity (Hse1, P38753) | SPOT intensity (Pin3, Q06449) | SPOT intensity (Cyk3, Q07533) | SPOT intensity (Fus1, P11710) | SPOT intensity (Bem1-2, P29366) | SPOT intensity (Bbc1, P47068) | SPOT intensity (Bem1-1, P29366) | SPOT intensity (Boi1, P38041) | SPOT intensity (Myo3, P36006) | SPOT intensity (Lsb3, P43603) | SPOT intensity (Sla1-3, P32790) | SPOT intensity (Myo5, Q04439) | SPOT intensity (Lsb1, P53281) | also measured
SNRRPVPRRPSQPLN | 0 | 18 | 3400 | 129 | 60 | 1 | 0 | 9 | 12 | 0 | 0 | 29 | 248 | 1 | 2 | 3 | 183 | 459 | 0 | 576 | SPOT intensity (Sho1, P40073): 31; SPOT intensity (Cdc25, P04821): 35; SPOT intensity (Bud14, P27637): 16; SPOT intensity (Sla1-2, P32790): 0; SPOT intensity (Nbp2, Q12163): 46; SPOT intensity (Abp1, P15891): 139; SPOT intensity (Lsb4, P32793): 333
RRTRLRPPTPLSQLL | 2 | 5 | 0 | 4 | 0 | 0 | 5 | 17 | 9 | 7 | 17 | 15 | 348 | 2 | 0 | 6 | 2 | 35 | 0 | 215 | SPOT intensity (Sho1, P40073): 39; SPOT intensity (Cdc25, P04821): 24; SPOT intensity (Bud14, P27637): 24; SPOT intensity (Sla1-2, P32790): 0; SPOT intensity (Nbp2, Q12163): 11; SPOT intensity (Abp1, P15891): 103; SPOT intensity (Lsb4, P32793): 1
TIRRRAPLSLLESHT | 3 | 4 | 3 | 3 | 8 | 2 | 1 | 16 | 11 | 3 | 3 | 4 | 15 | 2 | 1 | 0 | 0 | 38 | 0 | 29 | SPOT intensity (Sho1, P40073): 52; SPOT intensity (Cdc25, P04821): 13; SPOT intensity (Bud14, P27637): 13; SPOT intensity (Sla1-2, P32790): 1; SPOT intensity (Nbp2, Q12163): 11; SPOT intensity (Abp1, P15891): 46; SPOT intensity (Lsb4, P32793): 1
